# Laboratory results: IntAct's records for PubMed 28360110
# B1: Solute carrier family 26 member 9 (Homo sapiens), Q7LBE3-1 (parent)
# chain: MSQPRPRYVVDRAAYSLTLFDDEFEKKDRTYPVGEKLRNAFRCSSAKIKAVVFGLLPVLSWLPKYKIKDYIIPDLLGGLSGGSIQVPQGMAFALLANLPAVNGLYSSFFPLLTYFFLGGVHQMVPGTFAVISILVGNICLQLAPESKFQVFNNATNESYVDTAAMEAERLHVSATLACLTAIIQMGLGFMQFGFVAIYLSESFIRGFMTAAGLQILISVLKYIFGLTIPSYTGPGSIVFTFIDICKNLPHTNIASLIFALISGAFLVLVKELNARYMHKIRFPIPTEMIVVVVATAISGGCKMPKKYHMQIVGEIQRGFPTPVSPVVSQWKDMIGTAFSLAIVSYVINLAMGRTLANKHGYDVDSNQEMIALGCSNFFGSFFKIHVICCALSVTLAVDGAGGKSQVASLCVSLVVMITMLVLGIYLYPLPKSVLGALIAVNLKNSLKQLTDPYYLWRKSKLDCCIWVVSFLSSFFLSLPYGVAVGVAFSVLVVVFQTQFRNGYALAQVMDTDIYVNPKTYNRAQDIQGIKIITYCSPLYFANSEIFRQKVIAKTGMDPQKVLLAKQKYLKKQEKRRMRPTQQRRSLFMKTKTVSLQELQQDFENAPPTDPNNNQTPANGTSVSYITFSPDSSSPAQSEPPASAEAPGEPSDMLASVPPFVTFHTLILDMSGVSFVDLMGIKALAKLSSTYGKIGVKVFLVNIHAQVYNDISHGGVFEDGSLECKHVFPSIHDAVLFAQANARDVTPGHNFQGAPGDAELSLYDSEEDIRSYWDLEQEMFGSMFHAETLTAL
# Variants of: B1
# Conditions: with gopc_human GOPC
row,Variant,effect of a mutation on the interaction
1,T789A,decreasing interaction strength
